Assay results as given in patent US20240309103A1 (Regeneron, published 2024).

B1: mAb22033 (antibody, human IgG4, V domains shown)
VH: QVQLVQSGAEVKKPGASVTVSCKASGYTFTDYYMHWVRQAPGQGLEWMGWIKPNSGGTNSAQRFQGRITMTWDTSISTAYMELSRLRSDDTAVYYCSRGGPVMNYYYYYGMDVWGQGTTVTVSS
VL: NIQMTQSPSSLSASVGDRVTITCRASQSIDSYLNWYQQKPGKAPKLLIYVASSLQSGVPSRFSGSGSGKDFTLTISSLQPEDFATYYCQQSYSIPTFGQGTRLEIK
B2: mAb25502 (antibody, human IgG4, V domains shown)
VH: QLQLQESGPGLVKPSETLSLTCTVSGGSISSSSYYWGWIRQPPGKGLEWIGSIYYSGSPYYIPSLKSRVTISVDTSKNQFSLKLSSVTAADTAMYYCARQGRGIARAGPFDYWGQGTLVTVSS
VL: DIQMTQSPSSLSASVGDRVTITCRASQGISNYLAWYQEKPGKVPKLLIYAASTLQSGVPSRFSGSGSGTDFTLTITSLQSEDVATYYCQKYNSAPPWTFGQGTKVEIK
B3: mAb22805 (antibody, human IgG4, V domains shown)
VH: QVQLVESGGGVVQPGRSLRLSCAASGFTFSTYGMHWVRQAPGKGLEWVALIWNDGSNKYYADSVKGRFTISRDNSKNTLDLQMNSLRAEDTAVYYCARLNTRITGTTNLDYWGQGTLVTVSS
VL: DIQMTQSPSSLSASVGDRVTVSCRASQSIANYLNWYQQKPGKAPNLLIYGAYTLQSGVPSRFRGSGSGTDFTLTISSLQPEDFATYYCQQTYSTPPITFGQGTRLEIK
B4: mAb25545 (antibody, human IgG4, V domains shown)
VH: QVQLVESGGGLVKPGGSLRLSCAASGFTFSDYHLSWIRQAPGKGLEWVSYIRSSGRTIDYAASVKGRFTISRDNAKNSLYLQMNSLRVEDTAVYYCARENWIVLKVYAGIVGAPLDQWGQGTLVTVSS
VL: not shown
B5: mAb22810 (antibody, human IgG4, V domains shown)
VH: EVQLVESGGGLVKPGGSLRLSCVVSGFTFRIYTMNWVRQAPGKGLEWVASISSSSSFINYADSLKGRFTISRDNAQNSLYLQMNSLRAEDTAIYYCARAAGNDVLPGRMDVWGQGTSVTVSS
VL: EIVLTQSPGTLSLSPGERATLSCRASQSVSSNYLAWYQQKPGQVPSLLIYGASSRATGIPDRFSGSGSGTDFTLTITRLEPEDFAVYYCQQYGISPWTFGQGTKVEIK

Target: T1, mfNPR1-mFc (monkey)
T1 construct: also called dimeric monkey NPR1
T1 chain: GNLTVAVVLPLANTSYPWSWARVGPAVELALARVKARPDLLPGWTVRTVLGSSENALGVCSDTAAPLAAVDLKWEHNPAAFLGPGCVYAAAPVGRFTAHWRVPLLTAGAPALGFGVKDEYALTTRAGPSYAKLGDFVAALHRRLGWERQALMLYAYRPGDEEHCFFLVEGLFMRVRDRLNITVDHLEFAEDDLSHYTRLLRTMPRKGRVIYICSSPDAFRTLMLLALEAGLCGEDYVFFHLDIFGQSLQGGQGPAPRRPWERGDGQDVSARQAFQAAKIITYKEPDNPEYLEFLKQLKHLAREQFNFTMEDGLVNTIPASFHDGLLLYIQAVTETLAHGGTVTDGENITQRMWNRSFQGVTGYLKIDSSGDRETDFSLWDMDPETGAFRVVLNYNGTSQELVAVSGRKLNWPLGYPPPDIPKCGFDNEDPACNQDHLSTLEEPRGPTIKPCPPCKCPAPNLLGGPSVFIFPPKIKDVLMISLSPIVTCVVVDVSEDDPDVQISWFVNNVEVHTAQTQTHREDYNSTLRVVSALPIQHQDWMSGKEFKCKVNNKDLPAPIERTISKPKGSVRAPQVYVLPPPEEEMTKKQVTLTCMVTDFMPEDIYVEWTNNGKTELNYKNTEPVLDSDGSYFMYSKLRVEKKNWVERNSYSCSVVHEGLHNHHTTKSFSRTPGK
Assay: SPR, mAb captured, 25C
Experimental: (§1) Equilibrium dissociation constant (KD) for different NPR1 reagents binding to purified anti-NPR1 monoclonal antibodies (mAbs) were determined using a real-time surface plasmon resonance based Biacore 4000 biosensor. All binding studies were performed in 10 mM HEPES, 150 mM NaCl, 3 mM EDTA, and 0.05% v/v Surfactant Tween-20, pH 7.4 (HBS-ET) running buffer at 25° C. and 37° C. The Biacore CM5 sensor chip surface was first derivatized by amine coupling with either mouse anti-human Fc specific mAb (GE Healthcare, #BR100839) or goat anti-human Fcy specific polyclonal antibody (Jackson ImmunoResearch Laboratories, #BR-1008-39) to capture anti-NPR1 mAbs.

Binder | 100 nM Ag Bound (RU) | Kd | koff | kon | t½
B1 | 96 RU | 0.938 nM | 4.85e-05 s⁻¹ | 51700 M⁻¹ s⁻¹ | 3.97 h
B2 | 22 RU | 1.6 nM | 0.000141 s⁻¹ | 88300 M⁻¹ s⁻¹ | 1.37 h

Target: T2, mfNPR1-mFc:hBNP complex (monkey; human, UniProt P16860 103-134)
T2 construct: also called monkey NPR1 complexed to BNP
Assay: SPR, mAb captured, 25C
Experimental: as §1

Binder | 100 nM Ag Bound (RU) | Kd | koff | kon | t½
B1 | 132 RU | 0.781 nM | 5.15e-05 s⁻¹ | 65900 M⁻¹ s⁻¹ | 3.74 h
B2 | 110 RU | 4.08 nM | 0.000282 s⁻¹ | 69000 M⁻¹ s⁻¹ | 0.683 h
B3 | 113 RU | 2.12 nM | 9.6e-05 s⁻¹ | 45300 M⁻¹ s⁻¹ | 2.01 h
B4 | 42 RU | 2.08 nM | 4.97e-05 s⁻¹ | 23900 M⁻¹ s⁻¹ | 3.88 h

Target: T3, mfNPR1-mFc:hANP complex (monkey; human, UniProt P01160 124-151)
T3 construct: also called monkey NPR1 complexed to ANP
Assay: SPR, mAb captured, 25C
Experimental: as §1

Binder | 100 nM Ag Bound (RU) | Kd | koff | kon | t½
B1 | 133 RU | 0.815 nM | 5.36e-05 s⁻¹ | 65800 M⁻¹ s⁻¹ | 3.59 h
B2 | 113 RU | 3.56 nM | 0.000264 s⁻¹ | 74000 M⁻¹ s⁻¹ | 0.73 h
B3 | 116 RU | 1.96 nM | 9.51e-05 s⁻¹ | 48400 M⁻¹ s⁻¹ | 2.02 h
B4 | 45 RU | 2.35 nM | 5.37e-05 s⁻¹ | 22800 M⁻¹ s⁻¹ | 3.58 h

Target: T4, hNPR1-mFc:hBNP complex (human, UniProt P16860 103-134)
T4 construct: also called human NPR1 complexed to BNP
Assay: SPR, mAb captured, 25C
Experimental: as §1

Binder | 100 nM Ag Bound (RU) | Kd | koff | kon | t½
B1 | 85 RU | 1.23 nM | 6.67e-05 s⁻¹ | 54300 M⁻¹ s⁻¹ | 2.89 h
B2 | 78 RU | 3.4 nM | 0.000236 s⁻¹ | 69400 M⁻¹ s⁻¹ | 0.817 h
B3 | 84 RU | 3.68 nM | 0.000152 s⁻¹ | 41400 M⁻¹ s⁻¹ | 1.26 h
B4 | 27 RU | 2.72 nM | 6.26e-05 s⁻¹ | 23000 M⁻¹ s⁻¹ | 3.08 h

Target: T5, hNPR1-mFc:hANP or hNPR1-hFc:hANP complex (human, UniProt P01160 124-151)
T5 construct: also called human NPR1 complexed to ANP
Assay: SPR, mAb captured, 25C
Experimental: as §1

Binder | 100 nM Ag Bound (RU) | Kd | koff | kon | t½
B5 | 14 RU | 41.4 nM | 0.000344 s⁻¹ | 8310 M⁻¹ s⁻¹ | 0.567 h
B1 | 84 RU | 1.43 nM | 8.6e-05 s⁻¹ | 60300 M⁻¹ s⁻¹ | 2.24 h
B2 | 81 RU | 4.17 nM | 0.000253 s⁻¹ | 60600 M⁻¹ s⁻¹ | 0.762 h
B3 | 84 RU | 3.28 nM | 0.000141 s⁻¹ | 43100 M⁻¹ s⁻¹ | 1.36 h
B4 | 28 RU | 1.98 nM | 4.63e-05 s⁻¹ | 23400 M⁻¹ s⁻¹ | 4.16 h

Target: T1, mfNPR1-mFc
Assay: SPR, mAb captured, 37C
Experimental: as §1

Binder | 100 nM Ag Bound (RU) | Kd | koff | kon | t½
B1 | 126 RU | 2.06 nM | 9.9e-05 s⁻¹ | 48200 M⁻¹ s⁻¹ | 1.95 h
B4 | 26 RU | 2.62 nM | 0.000144 s⁻¹ | 55100 M⁻¹ s⁻¹ | 1.33 h

Target: T3, mfNPR1-mFc:hANP complex
Assay: SPR, mAb captured, 37C
Experimental: as §1

Binder | 100 nM Ag Bound (RU) | Kd | koff | kon | t½
B1 | 169 RU | 1.31 nM | 8.9e-05 s⁻¹ | 68000 M⁻¹ s⁻¹ | 2.16 h
B2 | 143 RU | 5.76 nM | 0.000524 s⁻¹ | 91000 M⁻¹ s⁻¹ | 0.367 h
B3 | 153 RU | 3.3 nM | 0.000209 s⁻¹ | 63300 M⁻¹ s⁻¹ | 0.922 h
B4 | 86 RU | 2.04 nM | 8.18e-05 s⁻¹ | 40100 M⁻¹ s⁻¹ | 2.35 h

Target: T4, hNPR1-mFc:hBNP complex
Assay: SPR, mAb captured, 37C
Experimental: as §1

Binder | 100 nM Ag Bound (RU) | Kd | koff | kon | t½
B1 | 108 RU | 1.79 nM | 9.6e-05 s⁻¹ | 53700 M⁻¹ s⁻¹ | 2 h
B2 | 102 RU | 7.82 nM | 0.000472 s⁻¹ | 60300 M⁻¹ s⁻¹ | 0.408 h
B3 | 112 RU | 6.02 nM | 0.000313 s⁻¹ | 52000 M⁻¹ s⁻¹ | 0.615 h
B4 | 56 RU | 2.85 nM | 9.84e-05 s⁻¹ | 34600 M⁻¹ s⁻¹ | 1.95 h

Target: T5, hNPR1-mFc:hANP or hNPR1-hFc:hANP complex
Assay: SPR, mAb captured, 37C
Experimental: as §1

Binder | 100 nM Ag Bound (RU) | Kd | koff | kon | t½
B5 | 26 RU | 75.5 nM | 0.00104 s⁻¹ | 13700 M⁻¹ s⁻¹ | 0.183 h
B1 | 108 RU | 1.69 nM | 9.8e-05 s⁻¹ | 57900 M⁻¹ s⁻¹ | 1.97 h
B2 | 105 RU | 6.49 nM | 0.000467 s⁻¹ | 72000 M⁻¹ s⁻¹ | 0.412 h
B3 | 113 RU | 4.91 nM | 0.000295 s⁻¹ | 60100 M⁻¹ s⁻¹ | 0.653 h
B4 | 58 RU | 2.35 nM | 8.61e-05 s⁻¹ | 36700 M⁻¹ s⁻¹ | 2.24 h
